In patent US20240010684A1, “MASP INHIBITORY COMPOUNDS AND USES THEREOF” (BAYER AKTIENGESELLSCHAFT, priority 2020, published 2024):

Legend:
[1] = biological target: recombinant human MASP2 (amino acids 297-686, C-terminal His Tag) (human) (UniProt O00187); experiment: cell-based or functional assay
[2] = biological target: T1, recombinant human MASP1 (amino acids 297-699, C-terminal His Tag) (human) (UniProt P48740); experiment: cell-based or functional assay
T1 sequence: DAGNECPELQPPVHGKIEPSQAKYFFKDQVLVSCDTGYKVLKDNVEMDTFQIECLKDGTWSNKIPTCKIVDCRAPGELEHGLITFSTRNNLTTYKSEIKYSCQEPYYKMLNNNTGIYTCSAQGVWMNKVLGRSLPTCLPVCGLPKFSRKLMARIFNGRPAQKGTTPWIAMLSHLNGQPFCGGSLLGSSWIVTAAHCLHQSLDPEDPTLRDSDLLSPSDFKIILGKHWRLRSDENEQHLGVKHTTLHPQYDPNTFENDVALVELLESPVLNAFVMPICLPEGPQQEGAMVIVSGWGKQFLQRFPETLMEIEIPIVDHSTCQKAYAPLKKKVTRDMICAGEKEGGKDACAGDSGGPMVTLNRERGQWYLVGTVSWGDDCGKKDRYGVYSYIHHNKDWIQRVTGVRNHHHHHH

Chain of recombinant human MASP2 (amino acids 297-686, C-terminal His Tag) (human) (O00187 other isoform, or with tags, fused parts or gaps limits assumed): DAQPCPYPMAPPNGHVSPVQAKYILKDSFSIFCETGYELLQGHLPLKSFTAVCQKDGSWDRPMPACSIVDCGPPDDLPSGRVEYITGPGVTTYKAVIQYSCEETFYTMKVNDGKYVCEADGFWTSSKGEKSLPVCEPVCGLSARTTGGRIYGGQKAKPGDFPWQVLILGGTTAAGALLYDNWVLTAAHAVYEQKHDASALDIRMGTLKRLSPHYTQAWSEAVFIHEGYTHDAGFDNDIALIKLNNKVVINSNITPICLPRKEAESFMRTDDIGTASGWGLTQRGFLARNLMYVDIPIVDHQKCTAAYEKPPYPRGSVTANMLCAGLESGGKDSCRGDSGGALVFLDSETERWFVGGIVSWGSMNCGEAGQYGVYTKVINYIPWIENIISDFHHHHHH

For “Example 47: A**GGIC+SRS-((tBu)A)-PPI-((N-Me)C)+-IPd** (peptide)”, the human MASP2 IC50 [1] was 66 nM and the human MASP1 IC50 [2] was 8.2 nM.
